Results reported in paper PMC3286403.
Values joined by “and” are separate entries in the source; they are usually repeats but may differ in a detail not shown here. Equal entries are not always repeated. Where two headings read alike, the source gives them in different places.

Columns and labels:
[1] = molecular target: His-tagged HIV-1 integrase Y194A (HIV-1); experiment: AlphaScreen or HTRF; HTRF; His-IN 80 nM, GST-LEDGF/p75 or GST-TNPO3 5 nM, anti-GST-Europium Cryptate and anti-His-XL665; 25 mM Hepes pH 7.3, 150 mM NaCl, 2 mM MgCl2, 0.1% BSA, 1 mM DTT; read 2 h after incubation; signal as percent of IN WT ΔF
[2] = molecular target: His6-tagged HIV-1 integrase K188Q (HIV-1); experiment: as above
[3] = molecular target: His6-tagged HIV-1 integrase Q168L (HIV-1); experiment: as above
[4] = molecular target: His6-tagged HIV-1 integrase W131A (HIV-1); experiment: as above
[5] = molecular target: His6-tagged HIV-1 integrase Y194E (HIV-1); experiment: as above
[6] = molecular target: untagged HIV-1 integrase W131A (HIV-1); experiment: SEC; 2.5 μM untagged IN on Superdex 200 10/300 GL; 50 mM HEPES pH 7.4, 750 mM NaCl, 10% glycerol; calibrated with protein standards; no DNA
[7] = molecular target: untagged HIV-1 integrase Y194E (HIV-1); experiment: as above
[8] = molecular target: untagged HIV-1 integrase wild type (HIV-1); experiment: as above
[9] = molecular target: His6-tagged HIV-1 integrase Q168L (HIV-1); experiment: AlphaScreen or HTRF; HTRF; His-IN 80 nM, GST-LEDGF/p75 or GST-TNPO3 5 nM, anti-GST-Europium Cryptate and anti-His-XL665; 25 mM Hepes pH 7.3, 150 mM NaCl, 2 mM MgCl2, 0.1% BSA, 1 mM DTT; read 2 h after incubation; signal as percent of IN WT ΔF; remark: listed apart in the source
[10] = molecular target: His6-tagged HIV-1 integrase W131A (HIV-1); experiment: as above; remark: listed apart in the source
[11] = molecular target: His6-tagged HIV-1 integrase Y194E (HIV-1); experiment: as above; remark: listed apart in the source
[12] = molecular target: His6-tagged HIV-1 integrase Y194F (HIV-1); experiment: as above

## GST-LEDGF/p75 full length (from UniProt O75475 1-530) (natural protein)
[1]
  percent decrease of binding against IN WT (HTRF): 27%
[2]
  percent decrease of binding against IN WT (HTRF): 64.9%
[3]
  percent of IN WT interaction (HTRF): 16.3%
[4]
  percent of IN WT interaction (HTRF): 9.3%
[5]
  percent decrease of binding against IN WT (HTRF): 26%

## untagged HIV-1 integrase W131A (enzyme)
[6]
  stoichiometry N: 4 and 2

## untagged HIV-1 integrase Y194E (enzyme)
[7]
  stoichiometry N: 4

## untagged HIV-1 integrase wild type (enzyme)
[8]
  stoichiometry N: 4 and 2

B1: GST-TNPO3 full length (natural protein)
chain: MEGAKPTLQLVYQAVQALYHDPDPSGKERASFWLGELQRSVHAWEISDQLLQIRQDVESCYFAAQTMKMKIQTSFYELPTDSHASLRDSLLTHIQNLKDLSPVIVTQLALAIADLALQMPSWKGCVQTLVEKYSNDVTSLPFLLEILTVLPEEVHSRSLRIGANRRTEIIEDLAFYSSTVVSLLMTCVEKAGTDEKMLMKVFRCLGSWFNLGVLDSNFMANNKLLALLFEVLQQDKTSSNLHEAASDCVCSALYAIENVETNLPLAMQLFQGVLTLETAYHMAVAREDLDKVLNYCRIFTELCETFLEKIVCTPGQGLGDLRTLELLLICAGHPQYEVVEISFNFWYRLGEHLYKTNDEVIHGIFKAYIQRLLHALARHCQLEPDHEGVPEETDDFGEFRMRVSDLVKDLIFLIGSMECFAQLYSTLKEGNPPWEVTEAVLFIMAAIAKSVDPENNPTLVEVLEGVVRLPETVHTAVRYTSIELVGEMSEVVDRNPQFLDPVLGYLMKGLCEKPLASAAAKAIHNICSVCRDHMAQHFNGLLEIARSLDSFLLSPEAAVGLLKGTALVLARLPLDKITECLSELCSVQVMALKKLLSQEPSNGISSDPTVFLDRLAVIFRHTNPIVENGQTHPCQKVIQEIWPVLSETLNKHRADNRIVERCCRCLRFAVRCVGKGSAALLQPLVTQMVNVYHVHQHSCFLYLGSILVDEYGMEEGCRQGLLDMLQALCIPTFQLLEQQNGLQNHPDTVDDLFRLATRFIQRSPVTLLRSQVVIPILQWAIASTTLDHRDANCSVMRFLRDLIHTGVANDHEEDFELRKELIGQVMNQLGQQLVSQLLHTCCFCLPPYTLPDVAEVLWEIMQVDRPTFCRWLENSLKGLPKETTVGAVTVTHKQLTDFHKQVTSAEECKQVCWALRDFTRLFR
[9]
  percent of IN WT (HTRF): 45%
[10]
  percent of IN WT (HTRF): 49%
[11]
  percent decrease of binding against IN WT (HTRF): 23.5%
[12]
  percent decrease of binding against IN WT (HTRF): 14.4%
